Assay results reported in paper PMC13342644, “Structural basis for transport and inhibition of nucleotide sugar transport in pathogenic fungi” (Nature Communications, 2026).
Entries after “also recorded” stand apart in the source; their conditions may differ.

T1: C. albicans Vrg4 (CaVrg4) (Candida albicans, UniProt Q5A477)
T1 sequence (Q5A477 34-371 limits assumed): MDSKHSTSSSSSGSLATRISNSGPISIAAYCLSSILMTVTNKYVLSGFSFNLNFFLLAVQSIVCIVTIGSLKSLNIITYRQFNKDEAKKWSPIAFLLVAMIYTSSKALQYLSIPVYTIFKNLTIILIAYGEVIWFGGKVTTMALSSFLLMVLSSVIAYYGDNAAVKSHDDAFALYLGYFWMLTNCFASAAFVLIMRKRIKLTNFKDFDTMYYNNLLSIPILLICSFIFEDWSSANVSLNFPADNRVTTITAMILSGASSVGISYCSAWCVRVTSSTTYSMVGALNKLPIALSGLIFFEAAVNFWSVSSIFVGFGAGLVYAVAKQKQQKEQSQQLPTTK


Experiments:
[1] = target: T1, C. albicans Vrg4 (CaVrg4); test: Liposome 3H-GMP transport assay in the presence of nanobodies; format: biochemical
Procedure: (§1) CaVrg4 was reconstituted into liposomes using the dilution method into preformed lipid vesicles. Chloroform was removed from the lipids using a rotary evaporator to obtain a thin film. The lipids were washed twice in pentane and then resuspended at 10–20 mg ml^−1 in lipid buffer (20 mM HEPES, pH 7.5, 100 mM KCl). These lipid vesicles were frozen and thawed twice in liquid nitrogen, then stored at −80 °C until use. For reconstitution, the lipids were thawed and then extruded first through a 0.8-μm filter and then through a 0.4-μm filter. […] After this time, the protein–lipid mix was diluted rapidly into 65 mL of assay buffer (20 mM HEPES, pH 7.5, 50 mM KCl, 2 mM MgSO4) and the proteoliposomes were collected through centrifugation at >200,000 x g for 2 h. To remove trace detergent, the proteoliposomes were dialysed overnight against a large volume (3 L) of assay buffer. After dialysis, the proteoliposomes were collected and resuspended in assay buffer to a final protein concentration of 0.5 μg μl^−1, and then subjected to two rounds of freeze–thawing in liquid nitrogen before storage at −80 °C. The amount of protein reconstituted into the lipids was quantified by SDS–PAGE and densitometry. […] The final buffer was PBS. For all the assays, the lipid mix consisted of POPE:POPG:Ecoli Polar lipid Extract:EggPC in a 27:7:9:1 ratio.
(§2) All assays were performed at 30 °C.

[2] = test system: C. auris Vrg4; test: Liposome 3H-GMP transport assay in the presence of nanobodies (specificity control); format: biochemical; conditions: Vrg4 from Candida auris
Procedure: as §1, §2

[3] = test system: S. cerevisiae Vrg4; test: as above; format: biochemical, Saccharomyces cerevisiae; conditions: Vrg4 from S. cerevisiae
[4] = test system: yeast strain NDY5 overexpressing C. albicans Vrg4; test: Hygromycin B-based in vivo viability (growth) assay; format: cell-based, Saccharomyces cerevisiae; conditions: NDY5 + C. albicans Vrg4, in the presence of hygromycin B
Procedure: The yeast was grown in minimal media to select for the plasmids, and the expression of the nanobody was induced with galactose. After overnight galactose induction, the yeast culture was diluted, and growth was monitored over 30 h.
An overnight culture was grown in minus -Leu-Ura medium containing 2% glucose and then diluted 1:10 into medium containing 2% lactate. After 9 h of growth, 2% galactose was added, and the cultures were left overnight. […] The cultures were grown at 30 °C with shaking, and growth was monitored over the next 30 h by measuring the OD.

Molecule | Effect on transport function (uptake of 3H GMP into liposomes), in words [1] | Detectable inhibition, in words [2] | Detectable inhibition, in words [3] | Growth / sensitivity to hygromycin B, in words [4]
NB3: inhibitory nanobody specific for C. albicans Vrg4, stabilises the Golgi-facing state (antibody, V domains shown) VH: QVQLVESGGGLVQPGGSLRLSCAASGSISEINVMGWYRQAPGKQRELVARITTGGSTNYADSVKGRFTISRDNAKNTVYLQMNSLKPEDTAVYMCNAHRRVVMEWGPLGYDYWGQGTQVTVSS | full inhibition | neither NB3 nor NB4 showed any detectable inhibition | neither NB3 nor NB4 showed any detectable inhibition | sensitivity of this strain to HyB manifests; also recorded: slow growth phenotype
NB4: inhibitory nanobody specific for C. albicans Vrg4, stabilises the cytoplasmic-facing state (antibody, V domains shown) VH: QVQLVESGGGLVQAGGSLRLSCAASGRTFRSYTLGWFRQAPGKEREFVAAIKWSTDTTYYADSVKGRFTISGDNAKNTVYLQMNSLKPEDTAVYFCAARSLSTVIAGPEIPWPYNSWGQGTQVTVSS | full inhibition | neither NB3 nor NB4 showed any detectable inhibition | neither NB3 nor NB4 showed any detectable inhibition | sensitivity of this strain to HyB manifests; also recorded: slow growth phenotype
